From patent US20140087995A1 (published 2014)
Numbered stars: 1 amine (or outer) side, 2 acyl side, 3 side chain; on linkers, the order of the positions; unused ones are H or OH. Bridge positions count the residues as written; N and C are the ends. Side chains are listed from the residue outwards. Ends that are not written are not given here. * marks the point of attachment. C20 diacid = O=C(O)CCCCCCCCCCCCCCCCCCC(=O)*; γGlu = O=C(O)[C@H](CCC(=O)[*:2])N[*:1]; AEEA = NCCOCCOCC(=O)O

T1: human amylin receptor (amylin 3(a) receptor: human calcitonin receptor plus RAMP-3) (human, UniProt P30988 25-474; O60896 24-148, limits assumed)
T1 sequence (looked up) 1: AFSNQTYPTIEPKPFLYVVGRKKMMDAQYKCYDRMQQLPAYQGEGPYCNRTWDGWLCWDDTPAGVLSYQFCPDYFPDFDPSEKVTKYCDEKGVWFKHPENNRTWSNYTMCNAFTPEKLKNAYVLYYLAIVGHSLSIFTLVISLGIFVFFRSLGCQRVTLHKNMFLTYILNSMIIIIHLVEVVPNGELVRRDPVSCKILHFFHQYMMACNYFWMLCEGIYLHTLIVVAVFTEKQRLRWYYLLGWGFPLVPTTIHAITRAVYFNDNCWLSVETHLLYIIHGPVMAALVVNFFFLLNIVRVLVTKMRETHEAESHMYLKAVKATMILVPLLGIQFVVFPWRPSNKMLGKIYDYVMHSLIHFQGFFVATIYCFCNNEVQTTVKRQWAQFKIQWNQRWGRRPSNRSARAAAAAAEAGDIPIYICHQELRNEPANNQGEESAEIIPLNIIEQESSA
T1 sequence (looked up) 2: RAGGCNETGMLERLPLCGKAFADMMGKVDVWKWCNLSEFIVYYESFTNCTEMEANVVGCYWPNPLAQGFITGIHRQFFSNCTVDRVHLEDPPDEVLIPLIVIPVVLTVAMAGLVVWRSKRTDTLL

T2: human calcitonin receptor (human, UniProt P30988 25-474)
T2 sequence (looked up): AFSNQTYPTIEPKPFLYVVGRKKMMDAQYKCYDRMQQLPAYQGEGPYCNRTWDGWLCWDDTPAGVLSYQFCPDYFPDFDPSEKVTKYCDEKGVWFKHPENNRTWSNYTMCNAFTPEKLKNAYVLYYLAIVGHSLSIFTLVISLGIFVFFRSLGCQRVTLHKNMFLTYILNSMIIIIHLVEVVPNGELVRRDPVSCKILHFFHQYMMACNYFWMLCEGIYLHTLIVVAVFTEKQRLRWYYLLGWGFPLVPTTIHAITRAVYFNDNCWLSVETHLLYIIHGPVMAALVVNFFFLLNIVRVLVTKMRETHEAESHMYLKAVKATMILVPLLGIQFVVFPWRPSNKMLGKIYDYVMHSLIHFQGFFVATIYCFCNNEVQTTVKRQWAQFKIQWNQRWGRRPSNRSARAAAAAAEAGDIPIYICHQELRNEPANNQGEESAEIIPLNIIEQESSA

B1: N^α1-[(4S)-4-carboxy-4-(19-carboxynonadecanoylamino)butanoyl]-[His14,Arg17,Pro21,Pro27,Glu35]-h-amylin (peptide)
peptide: {C20 diacid-γGlu}-KCNTATCATQRLAHFLRHSSPNFGAIPSSTNVGSETY-NH2
modifications: disulfide 2-7
SMILES: CC[C@H](C)[C@H](NC(=O)[C@H](C)NC(=O)CNC(=O)[C@H](Cc1ccccc1)NC(=O)[C@H](CC(N)=O)NC(=O)[C@@H]1CCCN1C(=O)[C@H](CO)NC(=O)[C@H](CO)NC(=O)[C@H](Cc1c[nH]cn1)NC(=O)[C@H](CCCNC(=N)N)NC(=O)[C@H](CC(C)C)NC(=O)[C@H](Cc1ccccc1)NC(=O)[C@H](Cc1c[nH]cn1)NC(=O)[C@H](C)NC(=O)[C@H](CC(C)C)NC(=O)[C@H](CCCNC(=N)N)NC(=O)[C@H](CCC(N)=O)NC(=O)[C@@H](NC(=O)[C@H](C)NC(=O)[C@@H]1CSSC[C@H](NC(=O)[C@H](CCCCN)NC(=O)CC[C@H](NC(=O)CCCCCCCCCCCCCCCCCCC(=O)O)C(=O)O)C(=O)N[C@@H](CC(N)=O)C(=O)N[C@@H]([C@@H](C)O)C(=O)N[C@@H](C)C(=O)N[C@@H]([C@@H](C)O)C(=O)N1)[C@@H](C)O)C(=O)N1CCC[C@H]1C(=O)N[C@@H](CO)C(=O)N[C@@H](CO)C(=O)N[C@H](C(=O)N[C@@H](CC(N)=O)C(=O)N[C@H](C(=O)NCC(=O)N[C@@H](CO)C(=O)N[C@@H](CCC(=O)O)C(=O)N[C@H](C(=O)N[C@@H](Cc1ccc(O)cc1)C(N)=O)[C@@H](C)O)C(C)C)[C@@H](C)O
notes: also called compound 30
B2: N^ε1-[2-[2-[2-[[(4S)-4-carboxy-4-(19-carboxynonadecanoylamino)butanoyl]amino]ethoxy]ethoxy]acetyl]-[Arg17,Pro21,Pro27,Glu35]-h-amylin (peptide)
peptide: K([AEEA-γGlu-C20 diacid])CNTATCATQRLANFLRHSSPNFGAIPSSTNVGSETY-NH2
modifications: disulfide 2-7; N-terminus assumed
SMILES: CC[C@H](C)[C@H](NC(=O)[C@H](C)NC(=O)CNC(=O)[C@H](Cc1ccccc1)NC(=O)[C@H](CC(N)=O)NC(=O)[C@@H]1CCCN1C(=O)[C@H](CO)NC(=O)[C@H](CO)NC(=O)[C@H](Cc1c[nH]cn1)NC(=O)[C@H](CCCNC(=N)N)NC(=O)[C@H](CC(C)C)NC(=O)[C@H](Cc1ccccc1)NC(=O)[C@H](CC(N)=O)NC(=O)[C@H](C)NC(=O)[C@H](CC(C)C)NC(=O)[C@H](CCCNC(=N)N)NC(=O)[C@H](CCC(N)=O)NC(=O)[C@@H](NC(=O)[C@H](C)NC(=O)[C@@H]1CSSC[C@H](NC(=O)[C@@H](N)CCCCNC(=O)COCCOCCNC(=O)CC[C@H](NC(=O)CCCCCCCCCCCCCCCCCCC(=O)O)C(=O)O)C(=O)N[C@@H](CC(N)=O)C(=O)N[C@@H]([C@@H](C)O)C(=O)N[C@@H](C)C(=O)N[C@@H]([C@@H](C)O)C(=O)N1)[C@@H](C)O)C(=O)N1CCC[C@H]1C(=O)N[C@@H](CO)C(=O)N[C@@H](CO)C(=O)N[C@H](C(=O)N[C@@H](CC(N)=O)C(=O)N[C@H](C(=O)NCC(=O)N[C@@H](CO)C(=O)N[C@@H](CCC(=O)O)C(=O)N[C@H](C(=O)N[C@@H](Cc1ccc(O)cc1)C(N)=O)[C@@H](C)O)C(C)C)[C@@H](C)O
notes: also called compound 26
B3: N^ε1-[(4S)-4-carboxy-4-(19-carboxynonadecanoylamino)butanoyl]-[Arg17,Pro21,Pro27,Glu35]-h-amylin (peptide)
peptide: K([γGlu-C20 diacid])CNTATCATQRLANFLRHSSPNFGAIPSSTNVGSETY-NH2
modifications: disulfide 2-7; N-terminus assumed
SMILES: CC[C@H](C)[C@H](NC(=O)[C@H](C)NC(=O)CNC(=O)[C@H](Cc1ccccc1)NC(=O)[C@H](CC(N)=O)NC(=O)[C@@H]1CCCN1C(=O)[C@H](CO)NC(=O)[C@H](CO)NC(=O)[C@H](Cc1c[nH]cn1)NC(=O)[C@H](CCCNC(=N)N)NC(=O)[C@H](CC(C)C)NC(=O)[C@H](Cc1ccccc1)NC(=O)[C@H](CC(N)=O)NC(=O)[C@H](C)NC(=O)[C@H](CC(C)C)NC(=O)[C@H](CCCNC(=N)N)NC(=O)[C@H](CCC(N)=O)NC(=O)[C@@H](NC(=O)[C@H](C)NC(=O)[C@@H]1CSSC[C@H](NC(=O)[C@@H](N)CCCCNC(=O)CC[C@H](NC(=O)CCCCCCCCCCCCCCCCCCC(=O)O)C(=O)O)C(=O)N[C@@H](CC(N)=O)C(=O)N[C@@H]([C@@H](C)O)C(=O)N[C@@H](C)C(=O)N[C@@H]([C@@H](C)O)C(=O)N1)[C@@H](C)O)C(=O)N1CCC[C@H]1C(=O)N[C@@H](CO)C(=O)N[C@@H](CO)C(=O)N[C@H](C(=O)N[C@@H](CC(N)=O)C(=O)N[C@H](C(=O)NCC(=O)N[C@@H](CO)C(=O)N[C@@H](CCC(=O)O)C(=O)N[C@H](C(=O)N[C@@H](Cc1ccc(O)cc1)C(N)=O)[C@@H](C)O)C(C)C)[C@@H](C)O
notes: also called compound 27
B4: N^ε1-[2-[2-[2-[[2-[2-[2-[[(4S)-4-carboxy-4-(19-carboxynonadecanoylamino)butanoyl]amino]ethoxy]ethoxy]acetyl]amino]ethoxy]ethoxy]acetyl]-[Arg17,Pro21,Pro27,Glu35 … (peptide)
peptide: K([AEEA-AEEA-γGlu-C20 diacid])CNTATCATQRLANFLRHSSPNFGAIPSSTNVGSETY-NH2
modifications: disulfide 2-7; N-terminus assumed
SMILES: CC[C@H](C)[C@H](NC(=O)[C@H](C)NC(=O)CNC(=O)[C@H](Cc1ccccc1)NC(=O)[C@H](CC(N)=O)NC(=O)[C@@H]1CCCN1C(=O)[C@H](CO)NC(=O)[C@H](CO)NC(=O)[C@H](Cc1c[nH]cn1)NC(=O)[C@H](CCCNC(=N)N)NC(=O)[C@H](CC(C)C)NC(=O)[C@H](Cc1ccccc1)NC(=O)[C@H](CC(N)=O)NC(=O)[C@H](C)NC(=O)[C@H](CC(C)C)NC(=O)[C@H](CCCNC(=N)N)NC(=O)[C@H](CCC(N)=O)NC(=O)[C@@H](NC(=O)[C@H](C)NC(=O)[C@@H]1CSSC[C@H](NC(=O)[C@@H](N)CCCCNC(=O)COCCOCCNC(=O)COCCOCCNC(=O)CC[C@H](NC(=O)CCCCCCCCCCCCCCCCCCC(=O)O)C(=O)O)C(=O)N[C@@H](CC(N)=O)C(=O)N[C@@H]([C@@H](C)O)C(=O)N[C@@H](C)C(=O)N[C@@H]([C@@H](C)O)C(=O)N1)[C@@H](C)O)C(=O)N1CCC[C@H]1C(=O)N[C@@H](CO)C(=O)N[C@@H](CO)C(=O)N[C@H](C(=O)N[C@@H](CC(N)=O)C(=O)N[C@H](C(=O)NCC(=O)N[C@@H](CO)C(=O)N[C@@H](CCC(=O)O)C(=O)N[C@H](C(=O)N[C@@H](Cc1ccc(O)cc1)C(N)=O)[C@@H](C)O)C(C)C)[C@@H](C)O
notes: also called compound 25
B5: N^ε1-[2-[2-[2-(19-carboxynonadecanoylamino)ethoxy]ethoxy]acetyl]-[Arg17,Pro21,Pro27]-h-amylin (peptide)
peptide: K([AEEA-C20 diacid])CNTATCATQRLANFLRHSSPNFGAIPSSTNVGSNTY-NH2
modifications: disulfide 2-7; N-terminus assumed
SMILES: CC[C@H](C)[C@H](NC(=O)[C@H](C)NC(=O)CNC(=O)[C@H](Cc1ccccc1)NC(=O)[C@H](CC(N)=O)NC(=O)[C@@H]1CCCN1C(=O)[C@H](CO)NC(=O)[C@H](CO)NC(=O)[C@H](Cc1c[nH]cn1)NC(=O)[C@H](CCCNC(=N)N)NC(=O)[C@H](CC(C)C)NC(=O)[C@H](Cc1ccccc1)NC(=O)[C@H](CC(N)=O)NC(=O)[C@H](C)NC(=O)[C@H](CC(C)C)NC(=O)[C@H](CCCNC(=N)N)NC(=O)[C@H](CCC(N)=O)NC(=O)[C@@H](NC(=O)[C@H](C)NC(=O)[C@@H]1CSSC[C@H](NC(=O)[C@@H](N)CCCCNC(=O)COCCOCCNC(=O)CCCCCCCCCCCCCCCCCCC(=O)O)C(=O)N[C@@H](CC(N)=O)C(=O)N[C@@H]([C@@H](C)O)C(=O)N[C@@H](C)C(=O)N[C@@H]([C@@H](C)O)C(=O)N1)[C@@H](C)O)C(=O)N1CCC[C@H]1C(=O)N[C@@H](CO)C(=O)N[C@@H](CO)C(=O)N[C@H](C(=O)N[C@@H](CC(N)=O)C(=O)N[C@H](C(=O)NCC(=O)N[C@@H](CO)C(=O)N[C@@H](CC(N)=O)C(=O)N[C@H](C(=O)N[C@@H](Cc1ccc(O)cc1)C(N)=O)[C@@H](C)O)C(C)C)[C@@H](C)O
notes: also called compound 43
B6: N^ε1-[2-[2-[2-[[(4S)-4-carboxy-4-(19-carboxynonadecanoylamino)butanoyl]amino]ethoxy]ethoxy]acetyl]-[Arg17,Pro21,Pro27]-h-amylin (peptide)
peptide: K([AEEA-γGlu-C20 diacid])CNTATCATQRLANFLRHSSPNFGAIPSSTNVGSNTY-NH2
modifications: disulfide 2-7; N-terminus assumed
SMILES: CC[C@H](C)[C@H](NC(=O)[C@H](C)NC(=O)CNC(=O)[C@H](Cc1ccccc1)NC(=O)[C@H](CC(N)=O)NC(=O)[C@@H]1CCCN1C(=O)[C@H](CO)NC(=O)[C@H](CO)NC(=O)[C@H](Cc1c[nH]cn1)NC(=O)[C@H](CCCNC(=N)N)NC(=O)[C@H](CC(C)C)NC(=O)[C@H](Cc1ccccc1)NC(=O)[C@H](CC(N)=O)NC(=O)[C@H](C)NC(=O)[C@H](CC(C)C)NC(=O)[C@H](CCCNC(=N)N)NC(=O)[C@H](CCC(N)=O)NC(=O)[C@@H](NC(=O)[C@H](C)NC(=O)[C@@H]1CSSC[C@H](NC(=O)[C@@H](N)CCCCNC(=O)COCCOCCNC(=O)CC[C@H](NC(=O)CCCCCCCCCCCCCCCCCCC(=O)O)C(=O)O)C(=O)N[C@@H](CC(N)=O)C(=O)N[C@@H]([C@@H](C)O)C(=O)N[C@@H](C)C(=O)N[C@@H]([C@@H](C)O)C(=O)N1)[C@@H](C)O)C(=O)N1CCC[C@H]1C(=O)N[C@@H](CO)C(=O)N[C@@H](CO)C(=O)N[C@H](C(=O)N[C@@H](CC(N)=O)C(=O)N[C@H](C(=O)NCC(=O)N[C@@H](CO)C(=O)N[C@@H](CC(N)=O)C(=O)N[C@H](C(=O)N[C@@H](Cc1ccc(O)cc1)C(N)=O)[C@@H](C)O)C(C)C)[C@@H](C)O
notes: also called compound 41

Tests used:
[1] = biological target: T1, human amylin receptor (amylin 3(a) …); assay: cell-based or functional assay
[2] = biological target: T2, human calcitonin receptor; assay: cell-based or functional assay

Binder	hAmylin-R funct. EC50 [1] [nM]	hCTR funct. EC50 [2] [nM]	Ratio hCT/hAmylin funct. (hCTR EC50 against hAmylin-R EC50) [2]
B1	0.134	1.68	–
B2	0.212	6.34	29.9
B3	0.133	3	22.6
B4	0.217	10	46.2
B5	0.141	0.92	6.5
B6	0.26	4.35	16.7
